US11300572B2, “Methods and systems for producing nanolipoprotein particles” (LAWRENCE LIVERMORE NATIONAL SECURITY, LLC, priority 2007, dated 2022)

Format: physicochemical
Protocol: Cell-free reactions were then performed. In particular, preparative reactions are carried out using the Invitrogen's Expressway Maxi kit or Roche's RTS 500 ProteoMaster Kit. Basically, lyophilized reaction components (Lysate, Reaction Mix, Amino Acid Mix, Methionine) are dissolved in Reconstitution Buffer and combined as specified by the manufacturer. For co-expression a total of 5 μg of each plasmid DNA (bOp and Δ49A1) was added to the lysate mixture with added DMPC vesicles and retinal cofactor (see below). The reactions were incubated at 30° C. or 37° C. for 4-24 h. For membrane protein survey studies co-expression of 0.2 ug Δ49A1 DNA and 1 ug of each membrane protein DNA was added to the cell-free mixture where [^35S]Met (135 mCi/mmol final) (Perkin Elmer, Waltham, Mass.) was added in place of methionine. The soluble fraction was obtained by centrifuging the reactions at 14000×g for 5 min. Autoradiograms were generated by overnight exposures to proteins separated by SDS-PAGE (data not shown). Percent solubility was determined using ImageJ software (U. S. National Institutes of Health) to quantize autoradiogram bands for the soluble fractions in the presence and absence of apolipoprotein Δ49A1.
All were expressed in the presence of 30-50 μM all-trans-retinal and 2 mg/mL DMPC. […]
The NLPs were also analyzed by SDS Page. […]

B1: bR: bacteriorhodopsin from H. salinarium, seven transmembrane protein, cell-free expressed from bOp with all-trans retinal (protein, UniProt P02945 14-262, looked up)
Bacteriorhodopsin: QAQITGRPEWIWLALGTALMGLGTLYFLVKGMGVSDPDAKKFYAITTLVPAIAFTMYLSMLLGYGLTMVPFGGEQNPIYWARYADWLFTTPLLLLDLALLVDADQGTILALVGADGIMIGTGLVGALTKVYSYRFVWWAISTAAMLYILYVLFFGFTSKAESMRPEVASTFKVLRNVTVVLWSAYPVVWLIGSEGAGIVPLNIETLLFMVLDVSAKVGFGLILLRSRAIFGEAEAPEPSAGDGAAATSD
modifications: all-trans retinal chromophore
In the case of B1, the “solubility of bR” value is reported as “insoluble”.
